Assay results taken from US20160083442.

purified p38 proteins activated by incubation with active Zap70
phosphorylation of ATF2 (in vitro kinase assay, [32P]ATP, phosphorimager) ((11R)-71-85): incubation with (11R)-71-85, but not (11R)-Ctrl, led to a decrease in phosphorylation of ATF2. In addition, the decrease in ATF2 phosphorylation was dependent on the dose of (11R)-71-85
phosphorylation of ATF2 (in vitro kinase assay, [32P]ATP, phosphorimager) ((11R)-Ctrl): incubation with (11R)-71-85, but not (11R)-Ctrl, led to a decrease in phosphorylation of ATF2
